Where a chain is given by its changes, count along the chain named. Numbers in names are those of the source.
Legend:
Assay type in all cases: biochemical
[1] = Oxidase activity testing against propanalol; settings: substrate Propanalol
Procedure: (§1) Lyophilised material of recombinant P450, ferredoxin and ferredoxin reductase proteins was made as described in Example 4 and reconstituted in high purity water to the original volume. Biocatalysis was performed with shaking incubation at 27° C. in the following conditions: 100 mM potassium phosphate pH 8.0, 5 mM MgCl2 (both present in the reconstituted enzyme preparation) and 0.1 mg/ml substrate compound such as ambroxide (Sigma-Aldrich, UK), carbamazepine (Sigma-Aldrich, UK), diclofenac (Sigma-Aldrich, UK), tivantinib (MedChemtronica, Sweden), clarithromycin (Tokyo Chemical Industry, Japan), sclareol (Sigma-Aldrich, UK), celecoxib (LC Laboratories, USA), buparvaquone (Sigma-Aldrich, UK), BIRB796 (MedChemExpress, USA), vanoxerine (CiVentiChem, USA), valsartan (Tokyo Chemical Industry, Japan), ruxolitinib (LC Laboratories, USA), perindopril (Selleckchem, USA), solifenacin (Key Organics, UK), 7-ethoxycoumarin (Tokyo Chemical Industry, Japan), tofacitinib (LC Laboratories, USA), ebastine (Key Organics, UK), efavirenz (Key Organics, UK), propanalol (Sigma-Aldrich, UK) and tolbutamide (Key Organics, UK).
(§2) Concentrations of P450, ferredoxin and ferredoxin reductase were as extracted (Example 4). Reactions were initiated by addition of 10× stock of cofactor mixture (50 mM G6P, 10 mM NADP+, 10 UN/ml G6PDH) to provide a final volume of e.g., 10 μl to 90 μl for 100 μl total reaction volumes. After 16-20 hours, reactions were extracted with an equal volume of acetonitrile, centrifuged to remove precipitated proteins and conversion assessed by UPLC-MS analysis.
(§3) UPLC Data were Obtained as Follows: • Column: Acquity UPLC BEH Shield RP18 1.7 μm 2.1 mm i.d. 50 mm length • Solvents: H2O, B: Acetonitrile, both with 0.1% Formic acid • Flow rate: 1.0 ml/min • Detector: Waters Acquity UPLC PDA (UV-Vis detection) and Waters Acquity UPLC QDA (MS)
(§4) Representative results for the % conversions of various substrates to products by enzymes with mutations at position T109 or L198 and double mutants at T109 and 1129/L198 are shown in Table 4 below.

[2] = Oxidase activity testing against clarithromycin; settings: substrate Clarithromycin
Procedure: as §1, §2, §3, §4

[3] = Oxidase activity testing against buparvaquone; settings: substrate Buparvaquone
Procedure: as §1, §2, §3, §4

[4] = Oxidase activity testing against BIRB796; settings: substrate BIRB796
Procedure: as §1, §2, §3, §4

[5] = Oxidase activity testing against valsartan; settings: substrate Valsartan
Procedure: as §1, §2, §3, §4

[6] = Oxidase activity testing against tolbutamide; settings: for Average % conversion: substrate Tolbutamide
Procedure: as §1, §2, §3, §4

[7] = Oxidase activity testing against sclareol; settings: substrate Sclareol, UPLC-MS UV or MS peak areas
Procedure: as §1, §2, §3, §4

[8] = Oxidase activity testing against vanoxerine; settings: substrate Vanoxerine
Procedure: as §1, §2, §3, §4

[9] = Oxidase activity testing against celecoxib; settings: substrate Celecoxib
Procedure: as §1, §2, §3, §4

[10] = Oxidase activity testing against solifenacin; settings: substrate Solifenacin
Procedure: as §1, §2, §3, §4

[11] = Oxidase activity testing against tofacitinib; settings: substrate Tofacitinib
Procedure: as §1, §2, §3, §4

[12] = Oxidase activity testing against perindopril; settings: substrate Perindopril
Procedure: as §1, §2, §3, §4

[13] = Oxidase activity testing against efavirenz; settings: substrate Efavirenz
Procedure: as §1, §2, §3, §4

[14] = Oxidase activity testing against 7-ethoxycoumarin; settings: substrate 7-ethoxycoumarin
Procedure: as §1, §2, §3, §4

[15] = Oxidase activity testing against ruxolitinib; settings: substrate Ruxolitinib
Procedure: as §1, §2, §3, §4

[16] = Oxidase activity testing, lyophilised recombinant P450/ferredoxin SeuF08/ferredoxin reductase SCF15A against ambroxide; settings: for +16 Da (1.50 min) 253 m/z / +16 Da (1.60 min) 253 m/z / +16 Da (2.04 min) 253 m/z: oxidised ambroxide product; for +16 Da (1.50 min) 253 m/z / +16 Da (1.60 min) 253 m/z / +16 Da (2.04 min) 253 m/z / Ambroxide (2.22 min) 237 m/z: relative MS peak area; for reaction products from ambroxide (in words): products at 1.50, 1.61 and 2.04 minutes; for Ambroxide (2.22 min) 237 m/z: remaining substrate, 0.1 mg/ml ambroxide, 27° C., 16-20 hours; for Average % conversion: substrate ambroxide, relative MS peak areas
Procedure: as §1, §2, §3
(§5) To confirm the identities of reaction products where known, their chromatographic retention time, mass and ultraviolet spectra were compared with those of authentic metabolite standards.
Representative results for the % conversions of ambroxide to oxidised (+16 Da) products for single point mutants at position T109 are shown in Table 2 below.

[17] = Oxidase activity testing against ebastine; settings: substrate Ebastine
Procedure: as §1, §2, §3, §4

[18] = Oxidase activity testing against carbamazepine; settings: for +16 Da (1.18 min) 253 m/z: 2-hydroxycarbamazepine; for +16 Da (1.18 min) 253 m/z / +16 Da (1.14 min) 253 m/z / Parent (1.31 min) 237 m/z: relative MS peak area; for +16 Da (1.14 min) 253 m/z: carbamazepine epoxide; for reaction products from carbamazepine (in words): new product at 1.18 minutes identified as 2-hydroxycarbamazepine, epoxide at 1.14 minutes; for Parent (1.31 min) 237 m/z: remaining carbamazepine, 0.1 mg/ml, 27° C., 16-20 hours; for Average % conversion: substrate carbamazepine, relative MS peak areas
Procedure: as §1, §2, §3, §5
Representative results for the % conversions of carbamazepine to oxidised (+16 Da) products for single point mutants at position L198 are shown in Table 3 below.

B1: SeuC10M25: P450SeuC10 with T109F mutation, SEQ ID NO: 54 (protein)
chain: MKIGTTHLTRLRGLSMTELTDITGPAAQAETVAFPQDRTCPYHPPTGYDPLRDGRPLSRVTLYDGREVWLVTAQATARALLADPRLSTDRRRDGFPVPTPRFAAGRDRFLALLGLDDPEHHRQRRLLIPSFTLKRATAQRPWIQRIVDELLDAMIARGPVADLVSAFALPVPSMVICELLGVPYADHEFFEEQSRRLLRGPTGADTTDARDRLEAYLGDLIDAKAKEAEPGDGILDDLVHNRLRAGELDRSVLVSLAVILLVAGHETTANMISLGTYTLLQHPERLAELRADPSLLPAVVEELLRMLSIAEGLQRLALEDIEIDGITIRAGEGVLFSTSVINRDTAVYEDPDDLDFHRADRHHVAFGFGIHQCLGQNLARAELEIALGSLFTRLPGLRLAAPAEEIPFKPGDTVQGMLELPVTW
modifications: SeuC10M25
Average % conversion ([1]; Batch 1): 0%
Average % conversion ([2]; Batch 1): 0%
Average % conversion ([3]; Batch 1): 19.4%
Average % conversion ([4]; Batch 1): 13.9%
Average % conversion ([5]; Batch 1): 15.5%
Average % conversion ([6]; Batch 1): 28.2%
Average % conversion ([7]; Batch 1): 55.7%
Average % conversion ([8]; Batch 1): 58%
Average % conversion ([9]; Batch 1): 10.4%
Average % conversion ([10]; Batch 1): 2.9%
Average % conversion ([11]; Batch 1): 21.4%
Average % conversion ([12]; Batch 1): 23.5%
Average % conversion ([13]; Batch 1): 1.5%
Average % conversion ([14]; Batch 1): 17.5%
Average % conversion ([15]; Batch 1): 79.8%
+16 Da (1.50 min) 253 m/z [16]: 52.0%
+16 Da (1.60 min) 253 m/z [16]: 15.2%
+16 Da (2.04 min) 253 m/z [16]: 13.9%
reaction products from ambroxide (in words) [16]: highest yields of the products at 1.61 and 2.04 minutes
Ambroxide (2.22 min) 237 m/z [16]: 18.9%
Average % conversion [16]: 81.1%
Average % conversion ([17]; Batch 1): 12.7%

B2: SeuC10: native CYP450 from Streptomyces eurythermus NRRL 2539, SEQ ID NO: 2 (protein, listed as Streptomyces eurythermus)
chain: B1 chain with F109T
Average % conversion ([1]; Batch 1): 0%
Average % conversion ([1]; Batch 2): 0%
Average % conversion ([2]; Batch 1): 0%
Average % conversion ([2]; Batch 2): 0%
Average % conversion ([3]; Batch 1): 23.5%
Average % conversion ([3]; Batch 2): 32.9%
Average % conversion ([4]; Batch 1): 83.1%
Average % conversion ([4]; Batch 2): 78.8%
Average % conversion ([5]; Batch 1): 20.1%
Average % conversion ([5]; Batch 2): 20.8%
Average % conversion ([6]; Batch 1): 32.2%
Average % conversion ([6]; Batch 2): 37.7%
Average % conversion ([7]; Batch 1): 38.5%
Average % conversion ([7]; Batch 2): 35.5%
Average % conversion ([8]; Batch 1): 75.8%
Average % conversion ([8]; Batch 2): 65.8%
Average % conversion ([9]; Batch 1): 29.4%
Average % conversion ([9]; Batch 2): 22.2%
Average % conversion ([10]; Batch 1): 5.3%
Average % conversion ([10]; Batch 2): 7.2%
+16 Da (1.18 min) 253 m/z [18]: 0.0%
+16 Da (1.14 min) 253 m/z [18]: 43.6%
reaction products from carbamazepine (in words) [18]: carbamazepine epoxide as the only reaction product
Parent (1.31 min) 237 m/z [18]: 56.4%
Average % conversion [18]: 43.6%
Average % conversion ([11]; Batch 1): 36.7%
Average % conversion ([11]; Batch 2): 51.6%
Average % conversion ([12]; Batch 1): 30.9%
Average % conversion ([12]; Batch 2): 32.7%
Average % conversion ([13]; Batch 1): 0%
Average % conversion ([13]; Batch 2): 0%
Average % conversion ([14]; Batch 1): 22.9%
Average % conversion ([14]; Batch 2): 23.3%
Average % conversion ([15]; Batch 1): 80.9%
Average % conversion ([15]; Batch 2): 98.6%
+16 Da (1.50 min) 253 m/z [16]: 72.2%
+16 Da (1.60 min) 253 m/z [16]: 5.0%
+16 Da (2.04 min) 253 m/z [16]: 0.0%
reaction products from ambroxide (in words) [16]: produce the product at 1.50 as the major product
Ambroxide (2.22 min) 237 m/z [16]: 22.8%
Average % conversion [16]: 77.2%
Average % conversion ([17]; Batch 1): 8.8%
Average % conversion ([17]; Batch 2): 4.5%

B3: SeuC10M2: P450SeuC10 with T109A mutation, SEQ ID NO: 8 (protein)
chain: B1 chain with F109A
modifications: SeuC10M2
Average % conversion ([1]; Batch 1): 0%
Average % conversion ([2]; Batch 1): 0%
Average % conversion ([3]; Batch 1): 28.7%
Average % conversion ([4]; Batch 1): 29.5%
Average % conversion ([5]; Batch 1): 17.6%
conversion of tolbutamide compared to wild-type (in words) [6]: significantly increased conversion
Average % conversion ([6]; Batch 1): 52.3%
Average % conversion ([7]; Batch 1): 36.5%
Average % conversion ([8]; Batch 1): 87.2%
Average % conversion ([9]; Batch 1): 24.7%
Average % conversion ([10]; Batch 1): 7.2%
Average % conversion ([11]; Batch 1): 47.1%
Average % conversion ([12]; Batch 1): 30.7%
Average % conversion ([13]; Batch 1): 0.9%
Average % conversion ([14]; Batch 1): 32.4%
Average % conversion ([15]; Batch 1): 92.8%
+16 Da (1.50 min) 253 m/z [16]: 85.1%
+16 Da (1.60 min) 253 m/z [16]: 7.0%
+16 Da (2.04 min) 253 m/z [16]: 0.0%
Ambroxide (2.22 min) 237 m/z [16]: 6.8%
Average % conversion [16]: 93.2%
Average % conversion ([17]; Batch 1): 6.8%

B4: SeuC10M20: P450SeuC10 with L198W mutation, SEQ ID NO: 44 (protein)
chain: B1 chain with F109T, L198W
modifications: SeuC10M20
Average % conversion ([1]; Batch 1): 0%
Average % conversion ([2]; Batch 1): 0%
Average % conversion ([3]; Batch 1): 1.7%
Average % conversion ([4]; Batch 1): 45.3%
Average % conversion ([5]; Batch 1): 25%
Average % conversion ([6]; Batch 1): 13.7%
Average % conversion ([7]; Batch 1): 0%
Average % conversion ([8]; Batch 1): 29.4%
Average % conversion ([9]; Batch 1): 6.9%
Average % conversion ([10]; Batch 1): 0.6%
+16 Da (1.18 min) 253 m/z [18]: 3.5%
+16 Da (1.14 min) 253 m/z [18]: 6.8%
reaction products from carbamazepine (in words) [18]: produce a new product
Parent (1.31 min) 237 m/z [18]: 89.7%
Average % conversion [18]: 10.3%
Average % conversion ([11]; Batch 1): 5.9%
Average % conversion ([12]; Batch 1): 16.5%
Average % conversion ([13]; Batch 1): 0%
Average % conversion ([14]; Batch 1): 11.4%
Average % conversion ([15]; Batch 1): 42.7%
Average % conversion ([17]; Batch 1): 19.2%

Source: patent US20240263208A1, “CYTOCHROME P450 ENZYME” (HYPHA DISCOVERY LTD., priority 2021, published 2024)
